We go through 2 molecules from patent publication US20230057904A1 (Chugai, published 2023).

Assay [1] addresses T1, human CLDN3 (human, UniProt O15551 1-220).
T1 construct: also called hCLDN3; hCLDN3/BaF
T1 sequence: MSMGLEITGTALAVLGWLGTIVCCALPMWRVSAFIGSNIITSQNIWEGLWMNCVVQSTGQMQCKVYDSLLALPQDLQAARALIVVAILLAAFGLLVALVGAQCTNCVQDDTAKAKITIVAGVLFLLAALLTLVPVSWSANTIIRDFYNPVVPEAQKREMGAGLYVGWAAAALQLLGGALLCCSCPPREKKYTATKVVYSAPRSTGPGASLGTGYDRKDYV
As to the kind of experiment: flow cytometry on hCLDN3/BaF (Ba/F3 transfectant), Alexa Fluor 488 anti-human IgG; histogram against KLH/TR01. As to the method: (§1) Amino acid sequence are highly conserved among CLDN3, CLDN4, CLDN6 and CLDN9. Thus we examined CLDN6 binding specificity by FACS analysis. hCLDN6/BaF, hCLDN3/BaF, hCLDN4/BaF, and hCLDN9/BaF were incubated with CS2201, CS2961, AH05/TR01 and 6PHU3/TR01 at 15 micro g/ml. KLH/TR01 generated in Example 2-3 was used as a staining control. Binding of each antibody was detected with Alexa Fluor 488-conjugated anti human IgG (Invitrogen). Dead cells were separated by eFlour 780 (Invitrogen) staining.
(Flow cytometry measures light scatter and fluorescence of single cells or particles in a stream.)

The target of assay [2] is T2, human CLDN4 (human, UniProt O14493 1-209).
T2 construct: also called hCLDN4; hCLDN4/BaF
T2 sequence: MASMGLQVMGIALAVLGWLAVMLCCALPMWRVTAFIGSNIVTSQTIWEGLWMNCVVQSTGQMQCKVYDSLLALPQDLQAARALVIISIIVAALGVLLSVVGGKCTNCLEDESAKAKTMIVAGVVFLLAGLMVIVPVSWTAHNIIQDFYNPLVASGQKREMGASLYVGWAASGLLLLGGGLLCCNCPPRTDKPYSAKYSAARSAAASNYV
As to the kind of experiment: flow cytometry on hCLDN4/BaF (Ba/F3 transfectant), Alexa Fluor 488 anti-human IgG; histogram against KLH/TR01.

Assay [3] concerns the target T3, human CLDN9 (human, UniProt O95484 1-217).
T3 construct: also called hCLDN9; hCLDN9/BaF
T3 sequence: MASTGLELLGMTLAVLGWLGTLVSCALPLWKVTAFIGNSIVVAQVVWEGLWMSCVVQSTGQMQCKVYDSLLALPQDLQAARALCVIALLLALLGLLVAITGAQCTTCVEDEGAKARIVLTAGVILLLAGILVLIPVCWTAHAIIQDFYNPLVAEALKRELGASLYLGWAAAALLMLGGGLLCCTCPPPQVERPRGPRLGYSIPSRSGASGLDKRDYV
As to the kind of experiment: flow cytometry on hCLDN9/BaF (Ba/F3 transfectant), Alexa Fluor 488 anti-human IgG; histogram against KLH/TR01.

Another assay has as its target T4, mouse CLDN9 (mouse, UniProt Q9Z0S7 1-217).
T4 construct: also called mCLDN9; mCLDN9/FS293
T4 sequence: T3 sequence with I86V, I124L, A128S, P188S, Q189H, V190F
As to the kind of experiment: flow cytometry, FreeStyle 293-F transfectants expressing mouse CLDN9, anti-human IgG Alexa Fluor 647; MFI. As to the method:
(§2) Antibodies were mixed with FreeStyle™ 293-F cells transiently expressed human and mouse CLDN3, 4, 6, and 9 at final concentration of 10 micro g/mL. After 1 hour of incubation, cells were washed by 0.1% BSA containing D-PBS(−), and incubated in 5 micro g/mL of either Goat anti-Human IgG (H+L) Cross-Adsorbed Secondary Antibody, Alexa Fluor 647 (Invitrogen, A21445) or Goat anti-Mouse IgG (H+L) Highly Cross-Adsorbed Secondary Antibody, Alexa Fluor 647 (Invitrogen, A21236), for 1 hour. Cells were then washed with 0.1% BSA containing D-PBS(−), resuspended in 5 micro L of 0.1% BSA containing D-PBS(−), and analyzed by flow cytometer (iQue Screener, intellicyte).

Another assay concerns the target T5, mouse CLDN3 (mouse, UniProt Q9Z0G9 1-219).
T5 construct: also called mCLDN3; mCLDN3/FS293
T5 sequence: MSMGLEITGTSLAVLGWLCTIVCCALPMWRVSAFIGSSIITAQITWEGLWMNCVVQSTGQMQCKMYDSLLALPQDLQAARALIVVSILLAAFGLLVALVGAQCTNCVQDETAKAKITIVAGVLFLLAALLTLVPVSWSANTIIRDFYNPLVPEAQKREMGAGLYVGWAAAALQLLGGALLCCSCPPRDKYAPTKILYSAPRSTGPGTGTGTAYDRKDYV
As to the kind of experiment: flow cytometry, FreeStyle 293-F transfectants expressing mouse CLDN3, anti-human IgG Alexa Fluor 647; MFI. The protocol: as §2

The target in a further assay is T6, mouse CLDN6 (mouse, UniProt Q9Z262 1-219).
T6 construct: also called mCLDN6; mCLDN6/FS293
T6 chain: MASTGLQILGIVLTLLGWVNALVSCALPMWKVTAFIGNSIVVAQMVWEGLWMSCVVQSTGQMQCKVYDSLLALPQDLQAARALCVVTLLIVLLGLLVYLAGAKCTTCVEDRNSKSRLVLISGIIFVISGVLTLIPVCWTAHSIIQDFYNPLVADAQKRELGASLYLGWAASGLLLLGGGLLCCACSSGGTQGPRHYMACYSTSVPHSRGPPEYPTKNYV
As to the kind of experiment: flow cytometry, FreeStyle 293-F transfectants expressing mouse CLDN6, anti-human IgG Alexa Fluor 647; MFI. As to the method: as §2

Assay [4] addresses T3, human CLDN9. As to the kind of experiment: flow cytometry, FreeStyle 293-F transfectants expressing human CLDN9, anti-human IgG Alexa Fluor 647; MFI. The protocol:
as §2

A further assay concerns the target T7, human CLDN6 (Claudin-6) (human, UniProt P56747 1-220).
T7 construct: also called hCLDN6; human Claudin 6
T7 chain: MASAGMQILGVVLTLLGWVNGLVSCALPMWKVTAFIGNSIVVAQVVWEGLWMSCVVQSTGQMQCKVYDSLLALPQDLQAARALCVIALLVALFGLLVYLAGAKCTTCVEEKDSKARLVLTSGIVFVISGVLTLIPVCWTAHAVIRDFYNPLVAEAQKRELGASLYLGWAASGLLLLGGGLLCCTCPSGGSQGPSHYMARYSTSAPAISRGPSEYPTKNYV
As to the kind of experiment: flow cytometry, FreeStyle 293-F transfectants expressing human CLDN6, anti-human IgG Alexa Fluor 647; MFI.

In assay [5] the target is T1, human CLDN3. As to the kind of experiment: flow cytometry on hCLDN3/BaF (Ba/F3 transfectant), Alexa Fluor 488 anti-human IgG. As to the method:
as §1

In assay [6] the target is T2, human CLDN4. As to the kind of experiment: flow cytometry on hCLDN4/BaF (Ba/F3 transfectant), Alexa Fluor 488 anti-human IgG. The protocol:
as §1

The next assay concerns the target T8, mouse CLDN4 (mouse, UniProt O35054 1-210).
T8 construct: also called mCLDN4; mCLDN4/FS293
T8 sequence: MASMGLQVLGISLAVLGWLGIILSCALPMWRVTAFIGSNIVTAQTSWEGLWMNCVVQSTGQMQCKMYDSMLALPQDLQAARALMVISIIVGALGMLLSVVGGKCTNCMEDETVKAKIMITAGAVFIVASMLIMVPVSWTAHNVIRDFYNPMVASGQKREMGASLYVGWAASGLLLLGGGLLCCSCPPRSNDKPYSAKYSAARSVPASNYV
As to the kind of experiment: flow cytometry, FreeStyle 293-F transfectants expressing mouse CLDN4, anti-human IgG Alexa Fluor 647; MFI. The protocol: as §2

Positions count from the first letter of the chain named.

B1: CS2961 (bispecific antibody, human IgG1, kappa, L234A L235A, N297A)
heavy 1: QVQLVESGGGVVQPGGSLRLSCAASGFTFSSYTMSWVREAPGQGLEWMGTISSGGGRTYYPDSVKGRFTISRDNSKNTLYLQMNSLRDEDTAVYYCARGDYRYDGFAYWGEGTLVTVSSASTKGPSVFPLAPSSKSTSGGTAALGCLVEDYFPEPVTVSWNSGALTSGVHTFPAVLESSGLYSLSSVVTVPSSSLGTQTYICNVNHKPSNTKVDERVEPKSCDKTHTCPPCPAPEAAGGPKVFLFPPKPKDTLMISRTPEVTCVVVDVSHEDPEVKFNWYVDGVEVHNAKTKPREEQYASTYRVVSVLTVLHQDWLNGKEYKCKVSNKGLPSSIEKTISKAKGQPREPQVYTLPPSREEMTKNQVSLTCLVKGFYPSDIAVEWESNGQPENNYKTTPPVLDSDGSFFLYSKLTVDKSRWQQGNVFSCSVMHEALHNHYTQESLSLSP
light 1: DIQMTQSPSSLSASVGDRVTITCRASYNIDSYLAWYQKKPGKAPELLIYYSTLLVDGVPDRFSGSRSGTDFTLTISSLQPEDFATYYCQHYYSIPYTFGQGTKVEIERTVAAPSVFIFPPSDKQLKSGTAKVVCLLNNFYPREAKVQWKVDNALQSGNSKESVTEQDSKDSTYSLSSTLTLSKADYEKHKVYACEVTHQGLSSPVTKSFNRGEC
heavy 2: QVQLVESGGGVVQPGGSLRLSCAASGFTFSNAWMHWVRKAPGKGLEWVAQIKDKSQNYATYVAESVKGRFTISRADSKNSIYLQMNSLKTEDTAVYYCRYVHYAAGYGVDIWGQGTTVTVSSASTKGPSVFPLAPSSKSTSGGTAALGCLVKDYFPEPVTVSWNSGALTSGVHTFPAVLKSSGLYSLSSVVTVPSSSLGTQTYICNVNHKPSNTKVDKRVEPKSCDKTHTCPPCPAPEAAGGPKVFLFPPKPKDTLMISRTPEVTCVVVDVSHEDPEVKFNWYVDGVEVHNAKTKPREEQYASTYRVVSVLTVLHQDWLNGKEYKCKVSNKGLPSSIEKTISKAKGQPREPQVYTLPPSRKEMTKNQVSLTCLVKGFYPSDIAVEWESNGQPENNYKTTPPVLDSDGSFFLYSKLTVDKSRWQQGNVFSCSVMHEALHNHYTQKSLSLSP
light 2: DIVMTQSPLSLPVTPGEPASISCRSSQPLVHSNRNTYLHWYQEKPGQAPRLLIYKVSNRFSGVPDRFSGSGSGTDFTLKISRVEAEDVGVYYCGQGTQVPYTFGQGTKLEIKRTVAAPSVFIFPPSDEQLKSGTAEVVCLLNNFYPREAKVQWKVDNALQSGNSEESVTEQDSKDSTYSLSSTLELSKADYEKHKVYACEVTHQGLSSPVTKSFNRGEC
notes: also called 65HQ39E-SG1212/54L0532Q38K-SK1021//TR01 arm with SG1213/SK1017
As to B1, the binding result in the assay with human CLDN3 [1], with human CLDN4 [2] and with human CLDN9 [3] was “no binding (tested: 15 micro g/ml)” throughout.

B2: KLH/TR01 (bispecific antibody, V domains shown)
VH 1: QVQLQQSGPQLVRPGASVKISCKASGYSFTSYWMHWVNQRPGQGLEWIGMIDPSYSETRLNQKFKDKATLTVDKSSSTAYMQLSSPTSEDSAVYYCALYGNYFDYWGQGTTLTVSS
VL 1: DIQMTQSSSSFSVSLGDRVTITCKASEDIYNRLAWYQQKPGNAPRLLISGATSLETGVPSRFSGSGSGKDYTLSITSLQTEDVATYYCQQYWSTPYTFGGGTKLEVK
VH 2: QVQLVESGGGVVQPGGSLRLSCAASGFTFSNAWMHWVRQAPGKGLEWVAQIKDKSQNYATYVAESVKGRFTISRADSKNSIYLQMNSLKTEDTAVYYCRYVHYAAGYGVDIWGQGTTVTVSS
VL 2: DIVMTQSPLSLPVTPGEPASISCRSSQPLVHSNRNTYLHWYQQKPGQAPRLLIYKVSNRFSGVPDRFSGSGSGTDFTLKISRVEAEDVGVYYCGQGTQVPYTFGQGTKLEIK
notes: made by Fab arm exchange; also called bispecific antibody of anti-keyhole limpet hemocyanin (KLH) antibody paired with the human CD3 antibody TR01; negative control
For B2, the binding result with mouse CLDN9 is recorded as “no binding (tested: 10 micro g/mL)”; in the assay with mouse CLDN3 it was “no binding (tested: 10 micro g/mL)”; with mouse CLDN6 it was “no binding (tested: 10 micro g/mL)”; with human CLDN9 [4], “no binding (tested: 10 micro g/mL)”; with human CLDN6 (Claudin-6), “no binding (tested: 10 micro g/mL)”; with human CLDN3 [5], “no binding (tested: 15 micro g/ml)”. In addition, the binding result with human CLDN4 [6] was “no binding (tested: 15 micro g/ml)”; with mouse CLDN4, “no binding (tested: 10 micro g/mL)”.
